{"source": "patent US20230242902A1", "about": "“A HIGHLY ERROR-PRONE […] R[…] FOR TARGETED CONTINUOUS EVOLUTION IN VIVO” (The Regents of the University of California, priority 2017, published 2023)", "type_in_all_cases": "cell-based, S. cerevisiae", "key": {"p1-encoded leu2 (Q180*) [1]": {"system": "p1-encoded leu2 (Q180*)", "assay": "qPCR measurement of p1-encoded leu2 (Q180*) copy number", "details": "qPCR-determined p1 copy number, OR-Y24 strains; L640Y, I777K", "method": "A calibration curve was established to correlate p1 copy number, determined via quantitative PCR (qPCR), with fluorescence of p1-encoded mKate2 (Table 1). Five TP-DNAP1 variants representing a wide range of copy numbers were transformed into ORY24 and passaged until w.t. p1 was displaced. The five OR-Y24 strains were grown to saturation, diluted 1:10,000 to mimic p1 fluctuation tests, and grown in triplicate 100 μL cultures and duplicate 40 mL cultures. 100 μL saturated cultures were subject to fluorescence measurement of mKate2 (ex/em=561 nm/620 nm, bandwidth=15 nm) on a flow cytometer (Invitrogen Attune NxT). Whole-cell DNA extracts were prepared from 40 mL cultures and used as templates for qPCR measurement of p1-encoded leu2 (Q180*), as described previously (Ravikumar et al., 2014). p1-encoded LEU2 was PCR amplified with qPCR-Leu2F and qPCR Leu2R; and genomic LEU3 was PCR amplified with qPCR-Leu3F and qPCR-Leu3R using SyBR Green (Fisher Scientific) master mix."}, "p1-encoded leu2 (Q180*) [2]": {"system": "p1-encoded leu2 (Q180*)", "assay": "Large-scale p1 fluctuation tests of p1-encoded leu2 (Q180*), per-base substitution rate", "details": "per-base substitution rate, p1-encoded leu2 (Q180*), large-scale fluctuation test", "method_in_brief": "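Yeast OR-Y24 carrying p1-encoded leu2 (Q180*) with individual TP-DNAP1 variants; 36-48 replicates (3-16 for highly error-prone variants), LEU2 revertants scored without leucine. Rates by maximum likelihood, normalized to cells per culture, p1 copy number (flow cytometry) and 2.33 reversion routes.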"}, "genomic URA3 gene": {"system": "genomic URA3 gene", "assay": "Fluctuation tests of the genomic URA3 gene in the presence of TP-DNAP1 variants", "details": "URA3 locus, strain harbouring p1 and the TP-DNAP1 variant", "method": "Fluctuation tests of the genomic URA3 gene were performed to determine genomic per-base substitution rates, as previously described (Ravikumar et al., 2014). Fluctuation data were analyzed by the maximum likelihood method, as described for large-scale p1 fluctuation tests. Phenotypic mutation rates were divided by the target size for loss of function of URA3 via base pair substitution (Lang et al., 2008), to yield per-base substitution rates. 95% confidence intervals were similarly scaled by these factors. All data related to genomic URA3 fluctuation tests are fully described in Table 5."}}, "note": "Several values for one entry are separate records, joined by “and”; a condition that tells them apart may be missing. Equal entries are not always repeated."}
{"molecule": "L474W, L640Y, I777K, W814N: TP-DNAP1 variant, encoded by SEQ ID NO:9 (protein, listed as Kluyveromyces lactis) MDYKDKALNDLRNVYADFDSLPLDFRQILIKDRATLLQKEDVEKKILERQEDAKKYAEYLKQSEIPERISLPNIKRHKGVSISFEETSEDMVLEPRPFIFDGLNIRCFRRETIFSLKNKILNMVKESSSFKNVSRQSVSFMYFKIFNKGKVIASTKSVNIYEDKIDERLEDLCNNFDDVLKKIIDVTYGYESLFVSETYSYVIFYAKSIYFPQPRCVNNWGNNIPNILTFDSFKLFTANKNNVSCIKQCSRFLWQKDFNTLEEMIEYKNGNICIVTPQLHINDVRDIKSFNDIRLYSESPIKTFSVIDNTITYLFYFKEHLGVIFNITKSRHDRRVTKFSPLSKFSDVKNITVCFDIESYFDPEKESNQVNIPFICCASIIYNKVIGNIVDFEGRDCVAQMIEYVVDICGELNISSVELIAHNGGGYDFHYILSSMYNPAAIKNILIRNNSFISFNFAHDGVKFSVKDSYSFLWCSLANASKAFLNEETFKKTDFPHHDLKTADDLYKVYKEWSSVNTEINHVVEKEKLLITSEHIVNFTKNDKSKTLIEWSKDYCRNDVLVLSKVWLEFKNAVEDIFNCELVDQTMTLAGLSYKLFQANMPFDVELRHPNKEDYFNMREALIGGRCISVNGIYKDVLCYDVKSLYPASMAFYDQPYGSFKRVSSRPKDELGIYYVRVTPNRNNKSNFFPIRSHNKITYNNFEESTYIAWYTNVDIDIGLSEGHNIEYIPFDSYGNIGYSWSKKGKIFEKYIKDVLYKLKIKYEKQNNKVKRNVIKKIMNSLWGKFAQKWVNFEYFIKSEDDIDFESEEAYKINDTDFMLIKKIKESTYSSKPIQNGVFTLSWARYHMKSIWDAGAKEGAECIYSDTDSIFVHKEHFKKNAKFMLNGLKVPIIGSEVGQLELECEFDKLLCAGKKQYMGFYTYFQDGKPCIKEKKRFKGIPSNYIIPELYAHLLSGADKEAKIQFLKFRREWGSVKGYIENKTVKAT", "values": [{"measurement": "Average leu2 (Q180*) copy number per cell", "setting": "p1-encoded leu2 (Q180*) [1]", "result": "8.63 and 11.1"}, {"measurement": "Mutation rate (s.p.b.)", "setting": "p1-encoded leu2 (Q180*) [2]", "result": "4.03 × 10^−6 s.p.b. and 2.74 × 10^−6 s.p.b."}, {"measurement": "Yeast genomic substitution mutation rate", "setting": "genomic URA3 gene", "result": "2.17 × 10^−10 s.p.b."}]}
